Reference: US20110217291A1

B1: FcγRIIIA/RIA-CH6 (soluble hybrid receptor: first Ig domain of FcγRIIIA followed by second and third Ig domains of FcγRIA, C-terminal six His tag) (receptor)
chain: EDLPKAVVFLEPQWYRVLEKDSVTLKCQGAYSPEDNSTQWFHNESLISSQASSYFIDAATVDDSGEYRCQTNLSTLSDPVQLEVHIGWLLLQVSSRVFTEGEPLALRCHAWKDKLVYNVLYYRNGKAFKFFHWNSNLTILKTNISHNGTYHCSGMGKHRYTSAGISVTVKELFPAPVLNASVTSPLLEGNLVTLSCETKLLLQRPGLQLYFSFYMGSKTLRGRNTSSEYQILTARREDSGLYWCEAATEDGNVLKRSPELELQVLGGSGGHHHHHH
B2: FcγRIIA/RIA-CH6 (soluble hybrid receptor: first Ig domain of FcγRIIA followed by second and third Ig domains of FcγRIA, C-terminal six His tag) (receptor)
chain: AAPPKAVLKLEPPWINVLQEDSVTLTCQGARSPESDSIQWFHNGNLIPTHTQPSYRFKANNNDSGEYTCQTGQTSLSDPVHLTVLSEWLLLQVSSRVFTEGEPLALRCHAWKDKLVYNVLYYRNGKAFKFFHWNSNLTILKTNISHNGTYHCSGMGKHRYTSAGISVTVKELFPAPVLNASVTSPLLEGNLVTLSCETKLLLQRPGLQLYFSFYMGSKTLRGRNTSSEYQILTARREDSGLYWCEAATEDGNVLKRSPELELQVLGGSGGHHHHHH

How the values were obtained:
[1] = target: IgG of IgG Sepharose 6 Fast Flow resin (GE Healthcare); test: batch binding of 293F conditioned media to IgG Sepharose, Western blot quantitation, n=2
[2] = target: IgG of IgG Sepharose 6 Fast Flow resin (GE Healthcare); test: IgG-Sepharose column, 24 h CHO conditioned media, Western blot

Binder | percent of total expressed in IgG Sepharose flow-through (aggregate amount) [1] [%] | percent of total expressed recovered from IgG resin [1] [%] | percent of total applied bound to IgG-Sepharose [2] [%] | percent of total applied in the wash (unbound) [2] [%]
B1 | 36 | 82 | 53 | 47
B2 | 14.2 | 40 | – | –
